The target in data set [1] is regulatory p85α subunit of bovine PI 3-kinase (bovine) (UniProt P23727). Put plainly: SPR (Biacore) competition: 100 nM p85α preincubated with soluble peptide, injected over the same peptide immobilised; two site competition fit, first value.
For data set [2] the target is unchanged. Put plainly: SPR competition: 100 nM p85α with soluble peptide over the same peptide immobilised.
Data set [3] shares this target. Put plainly: SPR (Biacore) competition: 100 nM p85α preincubated with soluble peptide, injected over the same peptide immobilised; two site competition fit, second value.
For data set [4], the target named is rIRS-1 449-664 S570A GST fusion protein preincubated with PKC-ζ, then tyrosine phosphorylated by insulin receptor (rat) (UniProt P35570). As to the kind of experiment: cell-based or functional assay.
For data set [5], the target named is GST fusion protein containing amino acids 449-664 of rat IRS-1 (rIRS-1 449-664), no PKC pretreatment (rat) (UniProt P35570). Put plainly: cell-based or functional assay.
Data set [6] addresses rIRS-1 449-664 GST fusion protein preincubated with PKC-ζ, then tyrosine phosphorylated by insulin receptor (rat) (UniProt P35570). As to the kind of experiment: cell-based or functional assay.
Data set [7] deals with rIRS-1 449-664 GST fusion protein preincubated with PKC from rat brain (PKC-rb), then tyrosine phosphorylated by insulin receptor (rat) (UniProt P35570). Put plainly: cell-based or functional assay.
Data set [8] deals with rIRS-1 449-664 S612A GST fusion protein preincubated with PKC-ζ, then tyrosine phosphorylated by insulin receptor (rat) (UniProt P35570). As to the kind of experiment: cell-based or functional assay.
Data set [9] deals with rIRS-1 449-664 S570A GST fusion protein preincubated with PKC-ζ, then tyrosine phosphorylated by insulin receptor (rat) (UniProt P35570). Put plainly: GST pull-down and immunoblot; against the insulin-stimulated control without PKC-ζ set as 100%.
Data set [10] has as its target rIRS-1 449-664 S612A GST fusion protein preincubated with PKC-ζ, then tyrosine phosphorylated by insulin receptor (rat) (UniProt P35570). The description is as above.
Data set [11] has as its target rIRS-1 449-664 GST fusion protein preincubated with PKC-ζ, then tyrosine phosphorylated by insulin receptor (rat) (UniProt P35570). Put plainly: GST pull-down and immunoblot; against insulin-stimulated rIRS-1 449-664 without PKC-ζ set as 100%.
Data set [12] addresses rIRS-1 449-664 GST fusion protein preincubated with PKC from rat brain (PKC-rb), then tyrosine phosphorylated by insulin receptor (rat) (UniProt P35570). As to the kind of experiment: GST pull-down and immunoblot; against insulin-stimulated rIRS-1 449-664 without PKC set as 100%.
Data set [13] has as its target T1, GST fusion protein containing amino acids 449-664 of rat IRS-1 (rIRS-1 449-664), no PKC pretreatment.
T1 chain: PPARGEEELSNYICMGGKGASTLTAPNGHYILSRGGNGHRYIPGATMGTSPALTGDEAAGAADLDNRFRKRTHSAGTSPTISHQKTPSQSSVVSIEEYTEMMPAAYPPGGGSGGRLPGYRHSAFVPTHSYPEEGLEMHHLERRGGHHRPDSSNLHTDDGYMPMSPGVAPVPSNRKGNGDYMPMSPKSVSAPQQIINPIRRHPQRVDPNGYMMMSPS

Sequence of regulatory p85α subunit of bovine PI 3-kinase (bovine) (P23727 whole entry): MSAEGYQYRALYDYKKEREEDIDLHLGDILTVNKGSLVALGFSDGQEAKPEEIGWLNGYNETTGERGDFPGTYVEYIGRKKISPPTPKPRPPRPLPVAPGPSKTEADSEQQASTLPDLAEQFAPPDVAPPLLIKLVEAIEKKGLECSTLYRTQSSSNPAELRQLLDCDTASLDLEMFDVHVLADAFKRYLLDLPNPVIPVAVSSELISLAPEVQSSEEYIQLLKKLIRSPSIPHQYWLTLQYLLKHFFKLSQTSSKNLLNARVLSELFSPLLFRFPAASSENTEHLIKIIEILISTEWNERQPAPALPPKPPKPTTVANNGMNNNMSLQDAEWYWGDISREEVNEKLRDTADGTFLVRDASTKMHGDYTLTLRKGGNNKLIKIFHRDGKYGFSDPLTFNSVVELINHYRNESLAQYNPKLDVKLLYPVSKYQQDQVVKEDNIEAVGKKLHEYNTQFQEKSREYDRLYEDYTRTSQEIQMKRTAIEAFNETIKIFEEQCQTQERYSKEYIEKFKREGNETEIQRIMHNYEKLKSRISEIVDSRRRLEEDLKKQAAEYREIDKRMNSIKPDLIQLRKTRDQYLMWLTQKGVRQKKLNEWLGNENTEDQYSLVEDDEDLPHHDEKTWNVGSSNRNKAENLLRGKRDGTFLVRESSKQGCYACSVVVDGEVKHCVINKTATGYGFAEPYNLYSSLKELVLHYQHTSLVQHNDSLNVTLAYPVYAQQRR

As for “IRS-1 peptide pY608 (DDGpYMPMSPGV), amino acids 605 to 615 of rat IRS-1 with phosphotyrosine 608”, the half-inhibitory concentration (IC50) in data set [1] was found to be 260 nM; in [3] it was 16600 nM. Besides, in data set [2], the peptide concentration for complete inhibition stood at 10 µM.

Take “IRS-1 peptide pY608-pS612 (DDGpYMPMpSPGV), amino acids 605 to 615 of rat IRS-1 with phosphotyrosine 608 and phosphoserine 612”: the figures for the IC50 in data set [1] and in [3] were 150 nM and 2880 nM, respectively. Besides, in data set [2], the peptide concentration for complete inhibition turned out to be 10 µM.

“insulin receptor, WGA-purified from rat liver, insulin-stimulated and autophosphorylated (from UniProt P15127 27-1383)”: the reduction of tyrosine phosphorylation by IR after PKC-ζ pretreatment in data set [4], in data set [6] and in data set [8] was 30 to 40% each time. Besides, the insulin-stimulated tyrosine phosphorylation of rIRS-1^449-664, fold over basal in data set [5] amounted to 8.8 fold. In addition, the inhibition of tyrosine phosphorylation in data set [6] was 46%. Moreover, the reduction of insulin-stimulated tyrosine phosphorylation in data set [7] stood at 27%.

For the molecule “regulatory p85α subunit of bovine PI 3-kinase (from UniProt P23727 1-724)”, the p85α binding, % of control is 43 % of control in data set [9] and 28 % of control in [10]. This molecule also showed an inhibition of p85α binding in [11] of 81%. Further, the inhibition of the association of p85α in [12] came out at 49%.

B1: recombinant human protein kinase C-ζ (protein)
chain: MPSRTGPKMEGSGGRVRLKAHYGGDIFITSVDAATTFEELCEEVRDMCRLHQQHPLTLKWVDSEGDPCTVSSQMELEEAFRLARQCRDEGLIIHVFPSTPEQPGLPCPGEDKSIYRRGARRWRKLYRANGHLFQAKRFNRRAYCGQCSERIWGLARQGYRCINCKLLVHKRCHGLVPLTCRKHMDSVMPSQEPPVDDKNEDADLPSEETDGIAYISSSRKHDSIKDDSEDLKPVIDGMDGIKISQGLGLQDFDLIRVIGRGSYAKVLLVRLKKNDQIYAMKVVKKELVHDDEDIDWVQTEKHVFEQASSNPFLVGLHSCFQTTSRLFLVIEYVNGGDLMFHMQRQRKLPEEHARFYAAEICIALNFLHERGIIYRDLKLDNVLLDADGHIKLTDYGMCKEGLGPGDTTSTFCGTPNYIAPEILRGEEYGFSVDWWALGVLMFEMMAGRSPFDIITDNPDMNTEDYLFQVILEKPIRIPRFLSVKASHVLKGFLNKDPKERLGCRPQTGFSDIKSHAFFRSIDWDLLEKKQALPPFQPQITDDYGLDNFDTQFTSEPVQLTPDDEDAIKRIDQSEFEGFEYINPLLLSTEESV
For B1, in data set [13], the “32P incorporation, SDS-PAGE and autoradiography” value was “a prominent phosphorylation of rIRS-1^449-664 by PKC became detectable”; the “phosphopeptide mapping by HPLC of wild type and S570A” value is on record as “serine 570 of IRS-1 is a novel phosphorylation site targeted by PKC-ζ”.

Source of the values: patent US20050106653A1.
